A word on the IC50: it is the concentration needed to halve the response being measured. As a reminder, the Ki is a measure of affinity in units of concentration, obtained from inhibition or displacement. A low value points to higher affinity.

The source of these data is US20200087373A1 (UNIVERSITY OF COPENHAGEN, published 2020).

In experiment [1] the target is T1, human GIP receptor (human, UniProt P48546 22-466).
T1 sequence (looked up): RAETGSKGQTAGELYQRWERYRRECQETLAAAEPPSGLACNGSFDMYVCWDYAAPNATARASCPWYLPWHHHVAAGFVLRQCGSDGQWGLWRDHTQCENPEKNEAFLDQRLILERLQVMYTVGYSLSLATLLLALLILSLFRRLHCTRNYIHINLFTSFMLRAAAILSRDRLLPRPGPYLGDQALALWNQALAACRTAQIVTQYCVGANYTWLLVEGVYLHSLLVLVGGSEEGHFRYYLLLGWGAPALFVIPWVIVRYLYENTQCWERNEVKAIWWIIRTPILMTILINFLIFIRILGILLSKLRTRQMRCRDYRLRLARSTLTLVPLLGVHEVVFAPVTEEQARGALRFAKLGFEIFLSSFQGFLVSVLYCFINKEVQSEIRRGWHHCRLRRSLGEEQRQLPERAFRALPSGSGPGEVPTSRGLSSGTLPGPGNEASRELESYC
In words: cell-based or functional assay.

For experiment [2], the target named is T1, human GIP receptor. The experiment in a line: 125I-hGIP competition binding, COS-7/hGIPR, 2% HSA.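 Further: nonspecific binding defined as radioligand binding to untransfected cells.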
Protocol: (§1) After incubation, the cells were washed twice in ice-cold binding buffer (+/−2% HSA) and lysed using 200 mM NaOH with 1% SDS for 30 min. Nonspecific binding was determined as the binding of radioactive ligand to untransfected cells.
For experiment [3], the target named is T1, human GIP receptor. In words: 125I-hGIP competition binding, COS-7/hGIPR, 0.1% casein.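 Further: nonspecific binding defined as radioligand binding measured on untransfected cells.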
Protocol: as §1
Experiment [4] has as its target T1, human GIP receptor. The experiment in a line: 125I-hGIP competition binding, COS-7 cells expressing hGIPR.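 Further: nonspecific binding taken as radioligand bound by untransfected cells, binding buffer with or without 2% HSA.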
Protocol: as §1
In experiment [5] the target is T1, human GIP receptor. In words: IC50 with 2% HSA over IC50 with 0.1% casein, 125I-hGIP competition, COS-7/hGIPR.
Protocol: as §1
The target of experiment [6] is T2, human GIP receptor (human, UniProt P48546 22-466).
T2 sequence (looked up): T1 sequence (looked up)
The experiment in a line: cell-based or functional assay. The source holds these as a separate data set.

The target in experiment [7] is T2, human GIP receptor. The experiment in a line: 125I-hGIP(1-42) competition binding, COS-7 cells expressing human GIPR, with 2% HSA.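 Further: nonspecific signal taken as radioligand bound to untransfected cells.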
Protocol: as §1
For experiment [8], the target named is T2, human GIP receptor. In words: 125I-hGIP(1-42) competition binding, COS-7 cells expressing human GIPR, without HSA.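 Further: nonspecific binding defined as radioligand bound to cells lacking the transfected receptor.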
Protocol: as §1
Experiment [9] deals with T2, human GIP receptor. In words: ratio of Ki with 2% HSA to Ki without HSA, 125I-hGIP competition binding on hGIPR COS-7 cells.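 Further: nonspecific binding was defined as radioligand signal on cells lacking the receptor transfection, with cell lysates measured after washes.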
Protocol: as §1

Several values for one entry are separate records, joined by “and”; a condition that tells them apart may be missing. Equal values may be shown once. Ends that are not written are not given here. * marks the point of attachment. C16 diacid = O=C(O)CCCCCCCCCCCCCCC(=O)*

B1: AT189 [hGIP(5-30)NH2[Q29K]-C16diacid/29] (peptide)
peptide: TFISDYSIAMDKIHQQDFVNWLLAK(C16 diacid)K-NH2
modifications: N-terminus assumed
SMILES: CC[C@H](C)[C@H](NC(=O)[C@H](CO)NC(=O)[C@H](Cc1ccc(O)cc1)NC(=O)[C@H](CC(=O)O)NC(=O)[C@H](CO)NC(=O)[C@@H](NC(=O)[C@H](Cc1ccccc1)NC(=O)[C@@H](N)[C@@H](C)O)[C@@H](C)CC)C(=O)N[C@@H](C)C(=O)N[C@@H](CCSC)C(=O)N[C@@H](CC(=O)O)C(=O)N[C@@H](CCCCN)C(=O)N[C@H](C(=O)N[C@@H](Cc1c[nH]cn1)C(=O)N[C@@H](CCC(N)=O)C(=O)N[C@@H](CCC(N)=O)C(=O)N[C@@H](CC(=O)O)C(=O)N[C@@H](Cc1ccccc1)C(=O)N[C@H](C(=O)N[C@@H](CC(N)=O)C(=O)N[C@@H](Cc1c[nH]c2ccccc12)C(=O)N[C@@H](CC(C)C)C(=O)N[C@@H](CC(C)C)C(=O)N[C@@H](C)C(=O)N[C@@H](CCCCNC(=O)CCCCCCCCCCCCCCC(=O)O)C(=O)N[C@@H](CCCCN)C(N)=O)C(C)C)[C@@H](C)CC
With B1, in [1], the “cAMP agonism” value is 79 nM; the “cAMP agonism, EC50 (log)” value was -7 log M and -7.1 log M; the “cAMP agonism, Emax” value was 12; the “cAMP antagonism” value is 79 nM. In addition, the “cAMP antagonism, log” value in experiment [1] was -7.1 log M. In [2], the IC50 was determined as 0.575 µM and the logIC50 is -6.2 log M. For the same molecule, in experiment [3], the IC50 came to 0.182 µM and the logIC50 was -6.7 log M. In experiment [4], the IC50 is 0.118 µM; the “log IC50” value is -6.9 log M and -6.93 log M. Besides, the “Fold change HSA (2%)/Casein (0.1%)” value in experiment [5] is 3.2 fold.
In the case of TFISDYSIAMDKIHQQDFVNWLLAQK-NH2 (Not lipidated) [hGIP(5-30)NH2], in [6], the “cAMP accumulation IC50” value was found to be 0.0275 µM and the “cAMP accumulation logIC50” value was -7.56 log(M). Further, the Ki in experiment [7] stood at 0.0067 µM. The same molecule displayed a Ki in [8] of 0.0063 µM. Moreover, the “Fold (Ki + HSA / Ki - HSA)” value in [9] is 1 fold.

B2: AT170 [hGIP(5-30)NH2[S8K]-C16diacid/8] (peptide)
peptide: TFIK(C16 diacid)DYSIAMDKIHQQDFVNWLLAQK-NH2
modifications: N-terminus assumed
SMILES: CC[C@H](C)[C@H](NC(=O)[C@H](CO)NC(=O)[C@H](Cc1ccc(O)cc1)NC(=O)[C@H](CC(=O)O)NC(=O)[C@H](CCCCNC(=O)CCCCCCCCCCCCCCC(=O)O)NC(=O)[C@@H](NC(=O)[C@H](Cc1ccccc1)NC(=O)[C@@H](N)[C@@H](C)O)[C@@H](C)CC)C(=O)N[C@@H](C)C(=O)N[C@@H](CCSC)C(=O)N[C@@H](CC(=O)O)C(=O)N[C@@H](CCCCN)C(=O)N[C@H](C(=O)N[C@@H](Cc1c[nH]cn1)C(=O)N[C@@H](CCC(N)=O)C(=O)N[C@@H](CCC(N)=O)C(=O)N[C@@H](CC(=O)O)C(=O)N[C@@H](Cc1ccccc1)C(=O)N[C@H](C(=O)N[C@@H](CC(N)=O)C(=O)N[C@@H](Cc1c[nH]c2ccccc12)C(=O)N[C@@H](CC(C)C)C(=O)N[C@@H](CC(C)C)C(=O)N[C@@H](C)C(=O)N[C@@H](CCC(N)=O)C(=O)N[C@@H](CCCCN)C(N)=O)C(C)C)[C@@H](C)CC
As for B2, in [6], the “cAMP accumulation Fold (fold change from GIP(5-30)NH2)” value is 32.4 fold, the “cAMP accumulation IC50” value is 0.891 µM and the “cAMP accumulation logIC50” value is -6.05 log(M). This molecule also gave a Ki in experiment [7] of 1.3 µM. This molecule also came in with a Ki in experiment [8] of 0.594 µM. For the same molecule, in [9], the “Fold (Ki + HSA / Ki - HSA)” value came out at 2.2 fold.

B3: AT169 [hGIP(5-30)NH2[I7K]-C16diacid/7] (peptide)
peptide: TFK(C16 diacid)SDYSIAMDKIHQQDFVNWLLAQK-NH2
modifications: N-terminus assumed
SMILES: CC[C@H](C)[C@H](NC(=O)[C@H](CO)NC(=O)[C@H](Cc1ccc(O)cc1)NC(=O)[C@H](CC(=O)O)NC(=O)[C@H](CO)NC(=O)[C@H](CCCCNC(=O)CCCCCCCCCCCCCCC(=O)O)NC(=O)[C@H](Cc1ccccc1)NC(=O)[C@@H](N)[C@@H](C)O)C(=O)N[C@@H](C)C(=O)N[C@@H](CCSC)C(=O)N[C@@H](CC(=O)O)C(=O)N[C@@H](CCCCN)C(=O)N[C@H](C(=O)N[C@@H](Cc1c[nH]cn1)C(=O)N[C@@H](CCC(N)=O)C(=O)N[C@@H](CCC(N)=O)C(=O)N[C@@H](CC(=O)O)C(=O)N[C@@H](Cc1ccccc1)C(=O)N[C@H](C(=O)N[C@@H](CC(N)=O)C(=O)N[C@@H](Cc1c[nH]c2ccccc12)C(=O)N[C@@H](CC(C)C)C(=O)N[C@@H](CC(C)C)C(=O)N[C@@H](C)C(=O)N[C@@H](CCC(N)=O)C(=O)N[C@@H](CCCCN)C(N)=O)C(C)C)[C@@H](C)CC
In the case of B3, in experiment [6], the “cAMP accumulation Fold (fold change from GIP(5-30)NH2)” value worked out at 3 fold, the “cAMP accumulation IC50” value was found to be 0.0813 µM and the “cAMP accumulation logIC50” value is -7.09 log(M). For the same molecule, in experiment [7], the Ki amounted to 0.126 µM. In experiment [8], this molecule came in with a Ki of 0.0265 µM. Further, the “Fold (Ki + HSA / Ki - HSA)” value in experiment [9] is 4.8 fold.

B4: AT156 [hGIP(5-30)NH2[H18K]-C16diacid/18] (peptide)
peptide: TFISDYSIAMDKIK(C16 diacid)QQDFVNWLLAQK-NH2
modifications: N-terminus assumed
SMILES: CC[C@H](C)[C@H](NC(=O)[C@H](CO)NC(=O)[C@H](Cc1ccc(O)cc1)NC(=O)[C@H](CC(=O)O)NC(=O)[C@H](CO)NC(=O)[C@@H](NC(=O)[C@H](Cc1ccccc1)NC(=O)[C@@H](N)[C@@H](C)O)[C@@H](C)CC)C(=O)N[C@@H](C)C(=O)N[C@@H](CCSC)C(=O)N[C@@H](CC(=O)O)C(=O)N[C@@H](CCCCN)C(=O)N[C@H](C(=O)N[C@@H](CCCCNC(=O)CCCCCCCCCCCCCCC(=O)O)C(=O)N[C@@H](CCC(N)=O)C(=O)N[C@@H](CCC(N)=O)C(=O)N[C@@H](CC(=O)O)C(=O)N[C@@H](Cc1ccccc1)C(=O)N[C@H](C(=O)N[C@@H](CC(N)=O)C(=O)N[C@@H](Cc1c[nH]c2ccccc12)C(=O)N[C@@H](CC(C)C)C(=O)N[C@@H](CC(C)C)C(=O)N[C@@H](C)C(=O)N[C@@H](CCC(N)=O)C(=O)N[C@@H](CCCCN)C(N)=O)C(C)C)[C@@H](C)CC
B4: in experiment [6], the “cAMP accumulation Fold (fold change from GIP(5-30)NH2)” value amounted to 0.9 fold, the “cAMP accumulation IC50” value was determined as 0.024 µM and the “cAMP accumulation logIC50” value is -7.62 log(M). This molecule yielded a Ki in experiment [7] of 0.029 µM. Besides, affinity in experiment [8] was put at a Ki of 0.005 µM. Further, the “Fold (Ki + HSA / Ki - HSA)” value in experiment [9] stood at 5.8 fold.

B5: AT171 [hGIP(5-30)NH2[D9K]-C16diacid/9] (peptide)
peptide: TFISK(C16 diacid)YSIAMDKIHQQDFVNWLLAQK-NH2
modifications: N-terminus assumed
SMILES: CC[C@H](C)[C@H](NC(=O)[C@H](CO)NC(=O)[C@H](Cc1ccc(O)cc1)NC(=O)[C@H](CCCCNC(=O)CCCCCCCCCCCCCCC(=O)O)NC(=O)[C@H](CO)NC(=O)[C@@H](NC(=O)[C@H](Cc1ccccc1)NC(=O)[C@@H](N)[C@@H](C)O)[C@@H](C)CC)C(=O)N[C@@H](C)C(=O)N[C@@H](CCSC)C(=O)N[C@@H](CC(=O)O)C(=O)N[C@@H](CCCCN)C(=O)N[C@H](C(=O)N[C@@H](Cc1c[nH]cn1)C(=O)N[C@@H](CCC(N)=O)C(=O)N[C@@H](CCC(N)=O)C(=O)N[C@@H](CC(=O)O)C(=O)N[C@@H](Cc1ccccc1)C(=O)N[C@H](C(=O)N[C@@H](CC(N)=O)C(=O)N[C@@H](Cc1c[nH]c2ccccc12)C(=O)N[C@@H](CC(C)C)C(=O)N[C@@H](CC(C)C)C(=O)N[C@@H](C)C(=O)N[C@@H](CCC(N)=O)C(=O)N[C@@H](CCCCN)C(N)=O)C(C)C)[C@@H](C)CC
On to B5, for which, in [6], the “cAMP accumulation Fold (fold change from GIP(5-30)NH2)” value was found to be 1.1 fold, the “cAMP accumulation IC50” value came to 0.0316 µM and the “cAMP accumulation logIC50” value was -7.5 log(M). The molecule also gave a Ki in experiment [7] of 0.5 µM. In [8], the Ki was found to be 0.0791 µM. Also, in experiment [9], the “Fold (Ki + HSA / Ki - HSA)” value was found to be 6.3 fold.

B6: AT168 [hGIP(5-30)NH2[F6K]-C16diacid/6] (peptide)
peptide: TKISDYSIAMDKIHQQDFVNWLLAQK
modifications: C16-diacid (1,16-hexadecanedioic acid) on Lys at position 6 in GIP numbering (residue 2 of the entry); C-terminal amide
Take B6: in experiment [6], the “cAMP accumulation Fold (fold change from GIP(5-30)NH2)” value was determined as 5.3 fold, the “cAMP accumulation IC50” value worked out at 0.148 µM and the “cAMP accumulation logIC50” value is -6.83 log(M). In addition, in experiment [7], the affinity, expressed as Ki, was 0.0977 µM. Besides, the affinity in [8], expressed as Ki, was 0.0413 µM. The “Fold (Ki + HSA / Ki - HSA)” value in experiment [9] was found to be 2.3 fold.
